For assay [1], the system named is collagen type IV treated with N-Glycosidase F. The assay is described as follows: Adhesion to N-glycosidase F treated collagen type IV. It is filed as binding, human. The settings on record: 0.5 U N-glycosidase F, 3 hours; data not shown. Here is the method:
Figure 3 Adhesion of Als5 to collagen type IV involves recognition of carbohydrate residues on collagen type IV but is not solely determined by it. (A) Adhesion of GST-Als5, GST-Als5-SS to collagen type IV. Different amounts of collagen type IV, as shown in the figure, were immobilized in 96-well flat bottomed ELISA plates and incubated with the proteins (0.09 mg/ml) of interest at 37 °C for 1 hour. The adhesion assay was carried out as described in Experimental Procedures. Adhesion of the proteins to collagen type IV was correlated to the absorbance at 650 nm observed by the oxidation of TMB, the substrate of HRP. […] Buffer controls (OD 650nm of 0.126 ± 0.003), corresponding to no immobilized collagen, have been subtracted in all cases. […] The data presented is mean of 3 independent experiments done in duplicates. […] (B) Treatment of collagen type IV with N-Glycosidase F results in decrease in adherence of GST-Als5. […] Adherence to collagen type IV was detected as already described. […]
Supplementary file pone.0035305.s005.tif: Figure S5 Treatment of collagen type IV with N-Glycosidase F results in decrease in adherence of GST-Als5. […] GST-Als5 was incubated before the adherence was detected by using primary anti-GST antibody and anti-rabbit HRP-conjugated secondary antibody and is represented in this figure by the Absorbance at 650nm observed upon oxidation of the specific substrate of HRP. […]

A further assay concerns Candida SC5314 cells. The assay is described as follows: Competition of anti-Als5 antibody binding to Candida cell surface, flow cytometry. Format: cell-based, Candida albicans. As to conditions: TRITC secondary antibody, 37 °C 1 hour, mean of 3 independent experiments in duplicates. Here is the method:
The production of the antibodies was outsourced (Merck India Ltd.). Polyclonal antibodies were generated in rabbit against the protein band obtained after an SDS-PAGE run of GST- Als5-SS. The antibodies detected both GST-Als5 as well as GST-Als5-SS on a Western Blot. The specificity of the generated anti-Als5 antibody was checked by detecting its ability to bind to the Candida cell surface adhesins. For staining, Candida SC5314 cells (a kind gift from Prof. Rajendra Prasad, SLS, JNU) were grown in synthetic dextrose minimal medium at 30°C to an OD600nm of 0.5. 500 µl of the cells were taken in an eppendorf and washed with PBS. […] The cells were then washed thrice with PBS, and the presence of the TRITC labelled secondary Ab on the Candida cells was detected using flow cytometry. To rule out the non-specific interaction of the secondary Ab with the proteins on Candida cell surface, unstained cells were also detected by flow cytometer. […]
In order to confirm the identity of the Als5 protein, we also designed the following experiment. […] Using a TRITC labelled secondary antibody, we detected the bound primary antibodies on the Candida cells by flow cytometry. […]
Figure 2 GST-Als5 specifically blocks binding of anti-Als5 antibody on Candida cell surface. […] This primary antibody was detected by a secondary antibody that was conjugated with TRITC and detected using flow cytometry as described in the text. […]
For orientation: A flow cytometer gives signals particle by particle.

Entries after “also recorded” stand apart in the source; their conditions may differ.

B1: GST-Als5: GST fusion of full length Als5 minus the GPI anchor attachment signal sequence, expressed in E. coli (protein)
chain: ITGIFNSIDSLTWSNAGNYAFKGPGYPTWNAVLGWSLDGTSANPGDTFILNMPCVFKFTASQKSVDLTADGVKYATCQFYSGEEFTTFSSLKCTVNNNLRSSIKALGTVTLPIAFNVGGTGSSVDLEDSKCFTAGTNTVTFNDGSKKLSIAVNFEKSTVDQSGYLTTSRFMPSLNKIATLYVAPQCENGYTSGTMGFSTSYGDVAIDCSNVHIGISKGVNDWNHPVTSESFSYTKSCSSFGISITYQNVPAGYRPFIDAYISPSDNNQYQLSYKNDYTCVDDYWQHAPFTLKWTGYKNSDAGSNGIVIVATTRTVTDSTTAVTTLPFNPSVDKTKTIEILQPIPTTTITTSYVGVTTSYSTKTAPIGETATVIVDVPYHTTTTVTSEWTGTITTTTTRTNPTDSIDTVVVQVPLPNPTTTTTQFWSESFTSTTTITNSLKGTDSVIVREPHNPTVTTTEFWSESYATTETITNGPEGTDSVIVREPHNPTVTTTEFWSESYATTETVTNKPEGTDSVIIKEPHNPTVTTTEFWSESYATTETITTGPLGTDSIVIHDPLEESSSTTAIESSDSNISSSAQESSSSVEQSSSIVGLSSSSDIPLSSDMPSSSSTGLTSSESSTVSSYDSDSSSSSELSTFSSSESYSSSISDTTNFWDSSSSDLESTSITWSSSIDAQSSQSVQSVSNSISTSQETTSSSGEESNTSVTDILVSSDASSILNSDISSYYPSSTISLSDDFPHTIAGEPDSRSSSSIASTVEISSDLVSLTSDPTSSFDSSSSLNSDSSSSPFSDESDISASSSFSTLVAPSFSLSSSSSLSLTYPHYVNSTTYHASESESSSVASPSMASESANDDTHTLSESTDTTSSIGTDSSTVTFCRRDNGDGCIVTGMPSSSIDSEQTSDVTTTSSFVASSTPTSAEQSITDNPNIDSSQTSASSSTKSSVSVSDTVVNSISLSETSTLSSDDSTSSDTSISSTTNSDTGNINAGSSHTSTASIKESSIQKTGVMLSSSYLSTKLSSTSDITTELITTELITTELTTIEDNEPNTFTSTPSSHSEIFSSDNSVLSKQVDRESTIKTSPTTDVTTVSSLSVHSTEASTATLGENSFSNVASTPSNIATSLRSTSSSSNHATESSGTVKSEASAEAIPSPPTSTDNRLSYSTEEAKGITYANSGSTNNLITESQVAAPTDSTSVLIENPVVTSTFDDNSSAAVDQPSKTKSIEESIMNPDSTNETNNGFIATLSQAQVPNSLIHSESISTTMAKTTDASINGDSAASNSQPTTLIQQVATSSYNQPLITTYAGSSS
modifications: left off: GST, N-terminal, kept
Regarding B1, the “effect of longer deglycosylation on adhesion (in words)” value in assay [1] was “did not further reduce the adhesion”. The “inhibition of anti-Als5 antibody binding to Candida cells (in words)” value in the assay with Candida SC5314 cells is given as “could inhibit the interaction of the primary antibodies to the cell surface in a concentration dependent manner; also recorded: inhibited the binding of anti-Als5 antibody to C.albicans cell surface in a concentration dependent manner”.
